Laboratory results taken from patent publication US20250295737A1 (AstraZeneca / MedImmune, published 2025).

Key:
Test in all cases: cell-based or functional assay
human RXFP1 = molecular target: T1, human RXFP1 (human, UniProt Q9HBX9 1-757)
T1 sequence (looked up): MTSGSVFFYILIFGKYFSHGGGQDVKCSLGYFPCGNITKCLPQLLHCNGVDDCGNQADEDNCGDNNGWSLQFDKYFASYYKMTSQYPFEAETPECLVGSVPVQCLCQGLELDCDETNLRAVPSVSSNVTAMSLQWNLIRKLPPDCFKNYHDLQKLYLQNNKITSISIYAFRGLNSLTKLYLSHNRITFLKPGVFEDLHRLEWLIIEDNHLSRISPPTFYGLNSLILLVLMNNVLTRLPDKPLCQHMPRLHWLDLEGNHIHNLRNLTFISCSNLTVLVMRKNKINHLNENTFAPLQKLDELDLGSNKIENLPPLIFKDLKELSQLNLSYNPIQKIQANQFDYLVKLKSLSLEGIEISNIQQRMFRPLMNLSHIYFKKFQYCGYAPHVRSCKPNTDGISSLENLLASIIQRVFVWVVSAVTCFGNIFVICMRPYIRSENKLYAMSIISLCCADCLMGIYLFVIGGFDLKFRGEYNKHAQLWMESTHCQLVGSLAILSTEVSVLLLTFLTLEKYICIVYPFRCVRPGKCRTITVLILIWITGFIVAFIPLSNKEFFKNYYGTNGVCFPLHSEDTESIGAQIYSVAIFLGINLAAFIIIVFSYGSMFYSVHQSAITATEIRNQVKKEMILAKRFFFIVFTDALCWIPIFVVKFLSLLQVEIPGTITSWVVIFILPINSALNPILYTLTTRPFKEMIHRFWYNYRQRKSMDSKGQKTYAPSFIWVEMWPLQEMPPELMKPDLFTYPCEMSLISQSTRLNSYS

human RXFP2 = human RXFP2 (human, UniProt Q8WXD0 1-754)
Sequence of human RXFP2 (Q8WXD0 whole entry): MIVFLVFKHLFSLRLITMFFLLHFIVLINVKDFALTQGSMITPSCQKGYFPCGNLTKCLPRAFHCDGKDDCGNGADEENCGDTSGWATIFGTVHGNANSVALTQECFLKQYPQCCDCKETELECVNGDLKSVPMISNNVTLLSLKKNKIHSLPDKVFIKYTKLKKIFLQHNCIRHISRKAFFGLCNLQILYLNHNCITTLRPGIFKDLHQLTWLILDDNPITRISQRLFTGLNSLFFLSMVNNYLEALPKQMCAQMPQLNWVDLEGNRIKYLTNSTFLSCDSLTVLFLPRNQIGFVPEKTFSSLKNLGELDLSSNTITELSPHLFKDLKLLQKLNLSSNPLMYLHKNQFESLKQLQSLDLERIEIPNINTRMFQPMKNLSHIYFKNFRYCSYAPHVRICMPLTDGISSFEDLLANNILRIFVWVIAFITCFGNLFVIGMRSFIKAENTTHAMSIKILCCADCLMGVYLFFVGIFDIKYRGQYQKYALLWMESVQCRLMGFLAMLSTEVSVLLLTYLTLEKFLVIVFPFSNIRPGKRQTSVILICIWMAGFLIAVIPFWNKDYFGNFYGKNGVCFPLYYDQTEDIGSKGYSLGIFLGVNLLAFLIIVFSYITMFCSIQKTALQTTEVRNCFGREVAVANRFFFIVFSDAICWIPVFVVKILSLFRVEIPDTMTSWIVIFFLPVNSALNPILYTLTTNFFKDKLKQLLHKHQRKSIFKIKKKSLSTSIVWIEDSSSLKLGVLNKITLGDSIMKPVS

mouse RXFP1 = molecular target: T2, mouse RXFP1 (mouse, UniProt Q6R6I7 1-758)
T2 sequence (looked up): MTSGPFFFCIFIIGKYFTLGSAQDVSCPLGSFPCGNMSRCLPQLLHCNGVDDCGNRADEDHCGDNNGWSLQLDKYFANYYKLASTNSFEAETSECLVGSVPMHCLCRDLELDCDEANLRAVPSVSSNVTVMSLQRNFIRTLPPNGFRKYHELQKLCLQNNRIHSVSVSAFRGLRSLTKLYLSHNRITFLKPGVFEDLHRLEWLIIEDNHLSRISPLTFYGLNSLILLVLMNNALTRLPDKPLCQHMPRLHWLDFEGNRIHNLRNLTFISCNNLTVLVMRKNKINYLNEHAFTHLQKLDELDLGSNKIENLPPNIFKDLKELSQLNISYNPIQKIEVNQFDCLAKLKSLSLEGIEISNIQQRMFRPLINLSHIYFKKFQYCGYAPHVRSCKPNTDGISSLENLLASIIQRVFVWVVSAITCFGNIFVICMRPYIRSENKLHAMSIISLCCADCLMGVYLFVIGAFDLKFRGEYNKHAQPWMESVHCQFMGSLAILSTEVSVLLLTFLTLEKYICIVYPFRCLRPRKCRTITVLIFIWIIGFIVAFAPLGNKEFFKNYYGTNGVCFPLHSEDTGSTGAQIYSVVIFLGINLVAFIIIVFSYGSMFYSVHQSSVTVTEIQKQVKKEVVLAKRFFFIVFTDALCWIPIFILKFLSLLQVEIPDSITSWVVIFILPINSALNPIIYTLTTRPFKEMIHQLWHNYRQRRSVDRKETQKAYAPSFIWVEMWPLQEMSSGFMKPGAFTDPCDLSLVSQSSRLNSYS

B1: RELAX0056 (Fc fusion)
chain 1: DKTHTCPPCPAPEFEGGPSVFLFPPKPKDTLMISRTPEVTCVVVDVSHEDPEVKFNWYVDGVEVHNAKTKPREEQYNSTYRVVSVLTVLHQDWLNGKEYKCKVSNKALPASIEKTISKAKGQPREPQVYTLPPCREEMTKNQVSLWCLVKGFYPSDIAVEWESNGQPENNYKTTPPVLDSDGSFFLYSKLTVDKSRWQQGNVFSCSVMHEALHNHYTQKSLSLSPGAPAPAPAPAPAPAPAPAPAGSQLYSALANKCCHVGCTKRSLARFC
chain 2: DKTHTCPPCPAPEFEGGPSVFLFPPKPKDTLMISRTPEVTCVVVDVSHEDPEVKFNWYVDGVEVHNAKTKPREEQYNSTYRVVSVLTVLHQDWLNGKEYKCKVSNKALPASIEKTISKAKGQPREPQVCTLPPSREEMTKNQVSLSCAVKGFYPSDIAVEWESNGQPENNYKTTPPVLDSDGSFFLVSKLTVDKSRWQQGNVFSCSVMHEALHNHYTQKSLSLSPGAPAPAPAPAPAPAPAPAPAGSSWMEEVIKLCGRELVRAQIAICGMSTWS
EC50 hRXFP1 (M), cAMP HTRF assay (human RXFP1): 3.87e-11 M | EC50 hRXFP2 (M), cAMP HTRF assay (human RXFP2): 6.48e-08 M | EC50 mRXFP1 (M), cAMP HTRF assay (mouse RXFP1): 3.27e-11 M

B2: RELAX0054 (Fc fusion)
chain 1: DKTHTCPPCPAPEFEGGPSVFLFPPKPKDTLMISRTPEVTCVVVDVSHEDPEVKFNWYVDGVEVHNAKTKPREEQYNSTYRVVSVLTVLHQDWLNGKEYKCKVSNKALPASIEKTISKAKGQPREPQVCTLPPSREEMTKNQVSLSCAVKGFYPSDIAVEWESNGQPENNYKTTPPVLDSDGSFFLVSKLTVDKSRWQQGNVFSCSVMHEALHNHYTQKSLSLSPGAAPAPAPAPAPAPAGSQLYSALANKCCHVGCTKRSLARFC
chain 2: DKTHTCPPCPAPEFEGGPSVFLFPPKPKDTLMISRTPEVTCVVVDVSHEDPEVKFNWYVDGVEVHNAKTKPREEQYNSTYRVVSVLTVLHQDWLNGKEYKCKVSNKALPASIEKTISKAKGQPREPQVYTLPPCREEMTKNQVSLWCLVKGFYPSDIAVEWESNGQPENNYKTTPPVLDSDGSFFLYSKLTVDKSRWQQGNVFSCSVMHEALHNHYTQKSLSLSPGAAPAPAPAPAPAPAGSSWMEEVIKLCGRELVRAQIAICGMSTWS
EC50 hRXFP1 (M), cAMP HTRF assay (human RXFP1): 2.89e-11 M | EC50 hRXFP2 (M), cAMP HTRF assay (human RXFP2): 1.53e-08 M | EC50 mRXFP1 (M), cAMP HTRF assay (mouse RXFP1): 1.59e-11 M

B3: RELAX0083 (Fc fusion)
chain 1: DKTHTCPPCPAPEFEGGPSVFLFPPKPKDTLMISRTPEVTCVVVDVSHEDPEVKFNWYVDGVEVHNAKTKPREEQYNSTYRVVSVLTVLHQDWLNGKEYKCKVSNKALPASIEKTISKAKGQPREPQVYTLPPCREEMTKNQVSLWCLVKGFYPSDIAVEWESNGQPENNYKTTPPVLDSDGSFFLYSKLTVDKSRWQQGNVFSCSVMHEALHNHYTQKSLSLSPGGGGGGSQLYSALANKCCHVGCTKRSLARFC
chain 2: DKTHTCPPCPAPEFEGGPSVFLFPPKPKDTLMISRTPEVTCVVVDVSHEDPEVKFNWYVDGVEVHNAKTKPREEQYNSTYRVVSVLTVLHQDWLNGKEYKCKVSNKALPASIEKTISKAKGQPREPQVCTLPPSREEMTKNQVSLSCAVKGFYPSDIAVEWESNGQPENNYKTTPPVLDSDGSFFLVSKLTVDKSRWQQGNVFSCSVMHEALHNHYTQKSLSLSPGGGGGGSSWMEEVIKLCGRELVRAQIAICGMSTWS
EC50 hRXFP1 (M), cAMP HTRF assay (human RXFP1): 2.81e-11 M | EC50 hRXFP2 (M), cAMP HTRF assay (human RXFP2): 2.42e-08 M | EC50 mRXFP1 (M), cAMP HTRF assay (mouse RXFP1): 1.34e-11 M

B4: RELAX0082 (Fc fusion)
chain 1: DKTHTCPPCPAPEFEGGPSVFLFPPKPKDTLMISRTPEVTCVVVDVSHEDPEVKFNWYVDGVEVHNAKTKPREEQYNSTYRVVSVLTVLHQDWLNGKEYKCKVSNKALPASIEKTISKAKGQPREPQVYTLPPCREEMTKNQVSLWCLVKGFYPSDIAVEWESNGQPENNYKTTPPVLDSDGSFFLYSKLTVDKSRWQQGNVFSCSVMHEALHNHYTQKSLSLSPGGGGGSGGGGGSQLYSALANKCCHVGCTKRSLARFC
chain 2: DKTHTCPPCPAPEFEGGPSVFLFPPKPKDTLMISRTPEVTCVVVDVSHEDPEVKFNWYVDGVEVHNAKTKPREEQYNSTYRVVSVLTVLHQDWLNGKEYKCKVSNKALPASIEKTISKAKGQPREPQVCTLPPSREEMTKNQVSLSCAVKGFYPSDIAVEWESNGQPENNYKTTPPVLDSDGSFFLVSKLTVDKSRWQQGNVFSCSVMHEALHNHYTQKSLSLSPGGGGGSGGGGGSSWMEEVIKLCGRELVRAQIAICGMSTWS
EC50 hRXFP1 (M), cAMP HTRF assay (human RXFP1): 5.68e-11 M | EC50 hRXFP2 (M), cAMP HTRF assay (human RXFP2): 3.81e-08 M | EC50 mRXFP1 (M), cAMP HTRF assay (mouse RXFP1): 4.9e-11 M

B5: RELAX0055 (Fc fusion)
chain 1: DKTHTCPPCPAPEFEGGPSVFLFPPKPKDTLMISRTPEVTCVVVDVSHEDPEVKFNWYVDGVEVHNAKTKPREEQYNSTYRVVSVLTVLHQDWLNGKEYKCKVSNKALPASIEKTISKAKGQPREPQVYTLPPCREEMTKNQVSLWCLVKGFYPSDIAVEWESNGQPENNYKTTPPVLDSDGSFFLYSKLTVDKSRWQQGNVFSCSVMHEALHNHYTQKSLSLSPGAPAPAPAPAGSQLYSALANKCCHVGCTKRSLARFC
chain 2: DKTHTCPPCPAPEFEGGPSVFLFPPKPKDTLMISRTPEVTCVVVDVSHEDPEVKFNWYVDGVEVHNAKTKPREEQYNSTYRVVSVLTVLHQDWLNGKEYKCKVSNKALPASIEKTISKAKGQPREPQVCTLPPSREEMTKNQVSLSCAVKGFYPSDIAVEWESNGQPENNYKTTPPVLDSDGSFFLVSKLTVDKSRWQQGNVFSCSVMHEALHNHYTQKSLSLSPGAPAPAPAPAGSSWMEEVIKLCGRELVRAQIAICGMSTWS
EC50 hRXFP1 (M), cAMP HTRF assay (human RXFP1): 1.88e-11 M | EC50 hRXFP2 (M), cAMP HTRF assay (human RXFP2): 3.39e-08 M | EC50 mRXFP1 (M), cAMP HTRF assay (mouse RXFP1): 1.51e-11 M

B6: RELAX0081 (Fc fusion)
chain 1: DKTHTCPPCPAPEFEGGPSVFLFPPKPKDTLMISRTPEVTCVVVDVSHEDPEVKFNWYVDGVEVHNAKTKPREEQYNSTYRVVSVLTVLHQDWLNGKEYKCKVSNKALPASIEKTISKAKGQPREPQVYTLPPCREEMTKNQVSLWCLVKGFYPSDIAVEWESNGQPENNYKTTPPVLDSDGSFFLYSKLTVDKSRWQQGNVFSCSVMHEALHNHYTQKSLSLSPGGGGGSGGGGSGGGGGSQLYSALANKCCHVGCTKRSLARFC
chain 2: DKTHTCPPCPAPEFEGGPSVFLFPPKPKDTLMISRTPEVTCVVVDVSHEDPEVKFNWYVDGVEVHNAKTKPREEQYNSTYRVVSVLTVLHQDWLNGKEYKCKVSNKALPASIEKTISKAKGQPREPQVCTLPPSREEMTKNQVSLSCAVKGFYPSDIAVEWESNGQPENNYKTTPPVLDSDGSFFLVSKLTVDKSRWQQGNVFSCSVMHEALHNHYTQKSLSLSPGGGGGSGGGGSGGGGGSSWMEEVIKLCGRELVRAQIAICGMSTWS
EC50 hRXFP1 (M), cAMP HTRF assay (human RXFP1): 4.51e-11 M | EC50 hRXFP2 (M), cAMP HTRF assay (human RXFP2): 4.92e-08 M | EC50 mRXFP1 (M), cAMP HTRF assay (mouse RXFP1): 4.73e-11 M

B7: RELAX0109 (Fc fusion)
chain 1: DKTHTCPPCPAPEFEGGPSVFLFPPKPKDTLMISRTPEVTCVVVDVSHEDPEVKFNWYVDGVEVHNAKTKPREEQYNSTYRVVSVLTVLHQDWLNGKEYKCKVSNKALPASIEKTISKAKGQPREPQVYTLPPCREEMTKNQVSLWCLVKGFYPSDIAVEWESNGQPENNYKTTPPVLDSDGSFFLYSKLTVDKSRWQQGNVFSCSVMHEALHNHYTQKSLSLSPGGGGGSGGGGSGGGGGSQLYSALANKCCHVGCTKRSLARFC
chain 2: DKTHTCPPCPAPEFEGGPSVFLFPPKPKDTLMISRTPEVTCVVVDVSHEDPEVKFNWYVDGVEVHNAKTKPREEQYNSTYRVVSVLTVLHQDWLNGKEYKCKVSNKALPASIEKTISKAKGQPREPQVYTLPPCREEMTKNQVSLWCLVKGFYPSDIAVEWESNGQPENNYKTTPPVLDSDGSFFLYSKLTVDKSRWQQGNVFSCSVMHEALHNHYTQKSLSLSPGAAPAPAPAPAPAPAGSSWMEEVIKLCGRELVRAQIAICGMSTWS
EC50 hRXFP1 (M), cAMP HTRF assay (human RXFP1): 1.72e-09 M | EC50 mRXFP1 (M), cAMP HTRF assay (mouse RXFP1): 8.22e-10 M
